# Measurements reported in paper PMC9618391 (2022).
# Substitutions are numbered along the chain they refer to. In names and notes the source's numbering stands.
# T1: μ1A (AP1M1) expressed from cDNA in COS-7 cells, Q9BXS5
# T1 chain: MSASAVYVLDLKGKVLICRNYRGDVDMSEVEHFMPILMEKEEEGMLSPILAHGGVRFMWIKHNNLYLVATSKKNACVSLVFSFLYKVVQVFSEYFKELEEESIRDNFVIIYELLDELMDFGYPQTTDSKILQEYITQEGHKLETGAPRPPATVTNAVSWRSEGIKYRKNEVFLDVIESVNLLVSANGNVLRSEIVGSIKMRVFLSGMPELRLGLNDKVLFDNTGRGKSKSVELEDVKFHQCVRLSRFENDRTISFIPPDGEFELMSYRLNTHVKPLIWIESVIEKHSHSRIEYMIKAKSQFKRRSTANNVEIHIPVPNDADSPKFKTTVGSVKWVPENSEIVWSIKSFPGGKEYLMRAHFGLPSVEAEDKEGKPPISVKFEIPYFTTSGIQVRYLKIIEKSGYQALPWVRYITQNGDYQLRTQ
# B1: wild-type human sodium/iodide symporter (hNIS), Q92911 L562A; L563A (protein)
# chain: MEAVETGERPTFGAWDYGVFALMLLVSTGIGLWVGLARGGQRSAEDFFTGGRRLAALPVGLSLSASFMSAVQVLGVPSEAYRYGLKFLWMCLGQLLNSVLTALLFMPVFYRLGLTSTYEYLEMRFSRAVRLCGTLQYIVATMLYTGIVIYAPALILNQVTGLDIWASLLSTGIICTFYTAVGGMKAVVWTDVFQVVVMLSGFWVVLARGVMLVGGPRQVLTLAQNHSRINLMDFNPDPRSRYTFWTFVVGGTLVWLSMYGVNQAQVQRYVACRTEKQAKLALLINQVGLFLIVSSAACCGIVMFVFYTDCDPLLLGRISAPDQYMPLLVLDIFEDLPGVPGLFLACAYSGTLSTASTSINAMAAVTVEDLIKPRLRSLAPRKLVIISKGLSLIYGSACLTVAALSSLLGGGVLQGSFTVMGVISGPLLGAFILGMFLPACNTPGVLAGLGAGLALSLWVALGATLYPPSEQTMRVLPSSAARCVALSVNASGLLDPALLPANDSSRAPSSGMDASRPALADSFYAISYLYYGALGTLTTVLCGALISCLTGPTKRSTLAPGAAWWDLARQTASVAPKEEVAILDDNLVKGPEELPTGNKKPPGFLPTNEDRLFFLGQKELEGAGSWTPCVGHDGGRDQQETNL
# B2: wild-type human sodium/iodide symporter (hNIS), Q92911 L594A (protein)
# chain: B1 chain with A562L, A563L, L594A
# B3: wild-type human sodium/iodide symporter (hNIS), Q92911 L121A (protein)
# chain: B1 chain with L121A, A562L, A563L
# B4: wild-type human sodium/iodide symporter (hNIS), Q92911 Y118A (protein)
# chain: B1 chain with Y118A, A562L, A563L
# B5: wild-type human sodium/iodide symporter (hNIS), Q92911 Y120A (protein)
# chain: B1 chain with Y120A, A562L, A563L
# B6: wild-type human sodium/iodide symporter (hNIS), Q92911 L583A (protein)
# chain: B1 chain with A562L, A563L, L583A
# B7: wild-type human sodium/iodide symporter (hNIS), Q92911 L587A (protein)
# chain: B1 chain with A562L, A563L, L587A
# Biological target: T1, μ1A (AP1M1) expressed from cDNA in …
# Assay: co-immunoprecipitation with Western blot quantification
# Conditions: chain shown with the change; COS-7 cells cotransfected with hNIS and μ1A; IP α-μ1A, WB α-hNIS; parent: est. 100; read off a plot
row,percent of parent (% Relative to hNIS WT),Binder
1,9,B1
2,100,B2
3,17,B3
4,80,B4
5,65,B5
6,60,B6
7,100,B7
